Experiment [1] has as its target non-polymerising (NP) fibrin (UniProt P02671). The experiment is described as follows: SPR; NP-fibrinogen immobilised, then converted to fibrin with thrombin; GPVI dimer as analyte (additional SPR experiments in the supplemental methods). A general note: SPR reads the build-up and loss of mass on a sensor chip optically.
For experiment [2], the target named is recombinant non-polymerising (NP) fibrinogen (UniProt P02671). The experiment is described as above.
The target of experiment [3] is recombinant fibrinogen αC fragment, full-length (Aα 221-610). The experiment in a line: SPR; biotinylated αC fragments Aα 221-391 (80 RU), 368-610 (120 RU), 221-610 (180 RU) on SA chip; dimeric GPVI as analyte up to 20 μM; 25 °C; 1:1 Langmuir.
Experiment [4] addresses recombinant fibrinogen αC fragment, C-terminal globular domain (Aα 368-610). The description is as above.
Experiment [5] has as its target dimeric GPVI (GPVI extracellular domain fused by IgG-Fc) (UniProt Q9HCN6). The experiment is described as follows: MST; CRP-XL titrated into FITC-labelled GPVI monomer or dimer; read-out is the fall of the initial fluorescence (quenching); 1:1 model; hypothetical KD on the monomeric-equivalent molar concentration of CRP-XL.
For experiment [6], the target named is monomeric GPVI (His-tagged GPVI extracellular domain) (UniProt Q9HCN6). The description is as above.
The target in experiment [7] is T1, dimeric GPVI (GPVI extracellular domain fused by IgG-Fc), Q9HCN6.
T1 chain: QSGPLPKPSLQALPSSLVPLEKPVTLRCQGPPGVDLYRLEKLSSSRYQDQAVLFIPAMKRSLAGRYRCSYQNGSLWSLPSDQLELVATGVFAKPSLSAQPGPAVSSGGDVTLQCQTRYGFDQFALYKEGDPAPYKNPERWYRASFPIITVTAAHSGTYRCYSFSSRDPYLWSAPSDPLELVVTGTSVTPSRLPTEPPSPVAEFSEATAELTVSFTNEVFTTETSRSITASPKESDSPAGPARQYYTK
The experiment is described as follows: MST; fibrin(ogen) or fragments titrated into FITC-labelled GPVI monomer or dimer (10 μl of 50 nM mixed 1:1); 20 mM HEPES pH 7.5, 50 mM NaCl; 23 °C; 1:1 model.

The target in experiment [8] is T1, dimeric GPVI (GPVI extracellular domain …). The experiment is described as follows: SPR; monomeric and dimeric GPVI immobilised as ligands; X-, D-, E-fragment or D-dimer as analytes up to 40 μM; 1:1 Langmuir.
Experiment [9] has as its target T2, dimeric GPVI (GPVI extracellular domain fused by IgG-Fc) (UniProt Q9HCN6 21-267, FITC label (in MST); biotin via NHS-LC-biotin (when immobilised in SPR)).
T2 sequence (looked up): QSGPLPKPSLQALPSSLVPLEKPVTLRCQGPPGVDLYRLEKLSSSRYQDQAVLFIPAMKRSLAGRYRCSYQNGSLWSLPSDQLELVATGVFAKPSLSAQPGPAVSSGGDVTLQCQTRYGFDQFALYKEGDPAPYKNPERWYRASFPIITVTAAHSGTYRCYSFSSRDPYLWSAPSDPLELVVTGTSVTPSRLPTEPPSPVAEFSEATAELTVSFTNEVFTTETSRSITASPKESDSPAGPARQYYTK
The description is as above. The settings on record: both partners purified.

In experiment [10] the target is T2, dimeric GPVI (GPVI extracellular domain …). The experiment is described as follows: MST; fibrin(ogen) or fragments titrated into FITC-labelled GPVI monomer or dimer (10 μl of 50 nM mixed 1:1); 20 mM HEPES pH 7.5, 50 mM NaCl; 23 °C; 1:1 model. As to conditions: both partners purified.
In experiment [11] the target is T3, monomeric GPVI (His-tagged GPVI extracellular domain), Q9HCN6.
T3 chain: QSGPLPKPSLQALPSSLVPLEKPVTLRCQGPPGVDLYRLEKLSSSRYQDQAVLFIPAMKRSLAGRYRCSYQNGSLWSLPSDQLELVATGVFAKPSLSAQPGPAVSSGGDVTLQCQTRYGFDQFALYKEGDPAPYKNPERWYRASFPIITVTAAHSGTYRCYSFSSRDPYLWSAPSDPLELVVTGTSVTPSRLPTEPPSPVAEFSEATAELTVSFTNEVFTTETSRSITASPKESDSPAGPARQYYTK
The experiment in a line: SPR; monomeric and dimeric GPVI immobilised as ligands; X-, D-, E-fragment or D-dimer as analytes up to 40 μM; 1:1 Langmuir.

For orientation: Kd means the equilibrium constant for the complex coming apart. “dimeric GPVI (GPVI extracellular domain fused by IgG-Fc) (from UniProt Q9HCN6 21-267) (Fc fusion)”: the equilibrium dissociation constant (Kd) was 0.086 µM in [1], 0.127 µM in experiment [2], 0.604 µM in experiment [3] and 2.3 µM in experiment [4].

On to “cross linked collagen-related peptide (CRP-XL)”, for which the Kd in [5] came to 0.603 µM; in experiment [6] it was 5 µM.

B1: fibrinogen D-fragment (domain or fragment)
chain 1: VSEDLRSRIEVLKRKVIEKVQHIQLLQKNVRAQLVDMKRLEVDIDIKIRSCRGSCSRALAREVDLKDYEDQQKQLEQVIAKDLLPSR
chain 2: DNENVVNEYSSELEKHQLYIDETVNSNIPTNLRVLRSILENLRSKIQKLESDVSAQMEYCRTPCTVSCNIPVVSGKECEEIIRKGGETSEMYLIQPDSSVKPYRVYCDMNTENGGWTVIQNRQDGSVDFGRKWDPYKQGFGNVATNTDGKNYCGLPGEYWLGNDKISQLTRMGPTELLIEMEDWKGDKVKAHYGGFTVQNEANKYQISVNKYRGTAGNALMDGASQLMGENRTMTIHNGMFFSTYDRDNDGWLTSDPRKQCSKEDGGGWWYNRCHAANPNGRYYWGGQYTWDMAKHGTDDGVVWMNWKGSWYSMRKMSMKIRPFFPQQ
chain 3: KMLEEIMKYEASILTHDSSIRYLQEIYNSNNQKIVNLKEKVAQLEAQCQEPCKDTVQIHDITGKDCQDIANKGAKQSGLYFIKPLKANQQFLVYCEIDGSGNGWTVFQKRLDGSVDFKKNWIQYKEGFGHLSPTGTTEFWLGNEKIHLISTQSAIPYALRVELEDWNGRTSTADYAMFKVGPEADKYRLTYAYFAGGDAGDAFDGFDFGDDPSDKFFTSHNGMQFSTWDNDNDKFEGNCAEQDGSGWWMNKCHAGHLNGVYYQGGTYSKASTPNGYDNGIIWATWKTRWYSMKKTTMKIIPFNRLTIGEGQQHHLGGAK
modifications: not checked
As to B1, the results for the Kd in experiment [7] and in experiment [8] were above 20 µM and 26 µM, respectively.

B2: D-dimer (degradation product of FXIIIa cross-linked fibrin) (domain or fragment)
chain 1: VSEDLRSRIEVLKRKVIEKVQHIQLLQKNVRAQLVDMKRLEVDIDIKIRSCRGSCSRALAREVDLKDYEDQQKQLEQVIAKDLLPSR
chain 2: DNENVVNEYSSELEKHQLYIDETVNSNIPTNLRVLRSILENLRSKIQKLESDVSAQMEYCRTPCTVSCNIPVVSGKECEEIIRKGGETSEMYLIQPDSSVKPYRVYCDMNTENGGWTVIQNRQDGSVDFGRKWDPYKQGFGNVATNTDGKNYCGLPGEYWLGNDKISQLTRMGPTELLIEMEDWKGDKVKAHYGGFTVQNEANKYQISVNKYRGTAGNALMDGASQLMGENRTMTIHNGMFFSTYDRDNDGWLTSDPRKQCSKEDGGGWWYNRCHAANPNGRYYWGGQYTWDMAKHGTDDGVVWMNWKGSWYSMRKMSMKIRPFFPQQ
chain 3: KMLEEIMKYEASILTHDSSIRYLQEIYNSNNQKIVNLKEKVAQLEAQCQEPCKDTVQIHDITGKDCQDIANKGAKQSGLYFIKPLKANQQFLVYCEIDGSGNGWTVFQKRLDGSVDFKKNWIQYKEGFGHLSPTGTTEFWLGNEKIHLISTQSAIPYALRVELEDWNGRTSTADYAMFKVGPEADKYRLTYAYFAGGDAGDAFDGFDFGDDPSDKFFTSHNGMQFSTWDNDNDKFEGNCAEQDGSGWWMNKCHAGHLNGVYYQGGTYSKASTPNGYDNGIIWATWKTRWYSMKKTTMKIIPFNRLTIGEGQQHHLGGAK
modifications: cross-linked by FXIIIa (chain and residues not stated)
With B2, the Kd in [9] was 28 µM; in [10], above 20 µM.

B3: fibrinogen E-fragment (domain or fragment)
chain 1: VVERHQSACKDSDWPFCSDEDWNYKCPSGCRMKGLIDEVNQDFTNRINKLKNSLFEYQK
chain 2: KVERKAPDAGGCLHADPDLGVLCPTGCQLQEALLQQERPIRNSVDELNNNVEAVSQTSSSSFQYMYLLK
chain 3: YVATRDNCCILDERFGSYCPTTCGIADFLSTYQTKVDKDLQSLEDILHQVENK
With B3, the values for the Kd in [9] and in [10] were 51 µM and above 20 µM, respectively.

B4: fibrinogen X-fragment (domain or fragment)
chain 1: ADSGEGDFLAEGGGVRGPRVVERHQSACKDSDWPFCSDEDWNYKCPSGCRMKGLIDEVNQDFTNRINKLKNSLFEYQKNNKDSHSLTTNIMEILRGDFSSANNRDNTYNRVSEDLRSRIEVLKRKVIEKVQHIQLLQKNVRAQLVDMKRLEVDIDIKIRSCRGSCSRALAREVDLKDYEDQQKQLEQVIAKDLLPSRDRQHLPLIKMKPVPDLVPGNFK
chain 2: QGVNDNEEGFFSARGHRPLDKKREEAPSLRPAPPPISGGGYRARPAKAAATQKKVERKAPDAGGCLHADPDLGVLCPTGCQLQEALLQQERPIRNSVDELNNNVEAVSQTSSSSFQYMYLLKDLWQKRQKQVKDNENVVNEYSSELEKHQLYIDETVNSNIPTNLRVLRSILENLRSKIQKLESDVSAQMEYCRTPCTVSCNIPVVSGKECEEIIRKGGETSEMYLIQPDSSVKPYRVYCDMNTENGGWTVIQNRQDGSVDFGRKWDPYKQGFGNVATNTDGKNYCGLPGEYWLGNDKISQLTRMGPTELLIEMEDWKGDKVKAHYGGFTVQNEANKYQISVNKYRGTAGNALMDGASQLMGENRTMTIHNGMFFSTYDRDNDGWLTSDPRKQCSKEDGGGWWYNRCHAANPNGRYYWGGQYTWDMAKHGTDDGVVWMNWKGSWYSMRKMSMKIRPFFPQQ
chain 3: YVATRDNCCILDERFGSYCPTTCGIADFLSTYQTKVDKDLQSLEDILHQVENKTSEVKQLIKAIQLTYNPDESSKPNMIDAATLKSRKMLEEIMKYEASILTHDSSIRYLQEIYNSNNQKIVNLKEKVAQLEAQCQEPCKDTVQIHDITGKDCQDIANKGAKQSGLYFIKPLKANQQFLVYCEIDGSGNGWTVFQKRLDGSVDFKKNWIQYKEGFGHLSPTGTTEFWLGNEKIHLISTQSAIPYALRVELEDWNGRTSTADYAMFKVGPEADKYRLTYAYFAGGDAGDAFDGFDFGDDPSDKFFTSHNGMQFSTWDNDNDKFEGNCAEQDGSGWWMNKCHAGHLNGVYYQGGTYSKASTPNGYDNGIIWATWKTRWYSMKKTTMKIIPFNRLTIGEGQQHHLGGAK
modifications: not checked
In the case of B4, the values for the dissociation constant (Kd) in [7], in experiment [8] and in experiment [11] were above 2 µM, 9 µM and above 1000 µM, respectively.

(Values after publication PMC7901536 (Arteriosclerosis, thrombosis, and vascular biology, 2021).)
